From US20210324102A1 (ACROIMMUNE BIOTECH, published 2021)

Tests used:
[1] = molecular target: human CD38 on cells (CHO-hCD38 / wild-type, and human tumor cell lines with positive CD38 expression) (human, UniProt P28907 1-300); assay: cell-based or functional assay
[2] = molecular target: T1, cynomolgus macaque CD38 on CHO cells (CHO-cynomolgus CD38) (cynomolgus macaque, UniProt Q5VAN0 1-301); assay: flow cytometry on CHO-cynomolgus CD38 cells
T1 construct: whole, on cells; also called CHO/mkCD38; mkCD38

[3] = molecular target: T2, recombinant cynomolgus macaque CD38-his protein (Sino Biological Inc.) (cynomolgus macaque, UniProt Q5VAN0 44-301, limits assumed); assay: direct ELISA, plate coated with recombinant cynomolgus macaque CD38-his protein
T2 construct: Bought protein; also called recombinant cynomolgus macaque CD38 protein; cynomolgus macaque CD38 protein; not shown: his tag

B1: Daratumumab (antibody, V domains shown)
VH: EVQLLESGGGLVQPGGSLRLSCAVSGFTFNSFAMSWVRQAPGKGLEWVSAISGSGGGTYYADSVKGRFTISRDNSKNTLYLQMNSLRAEDTAVYFCAKDKILWFGEPVFDYWGQGTLVTVSS
VL: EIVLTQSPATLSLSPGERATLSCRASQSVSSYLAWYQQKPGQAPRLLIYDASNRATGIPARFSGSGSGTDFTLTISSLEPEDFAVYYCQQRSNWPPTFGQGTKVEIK
In the case of B1, the “EC50 of CDC activity, Daudi target cells, 10% rabbit serum” value (shortened to “EC50 of CDC activity … 10% rabbit serum”) [1] is reported as 0.1 µg/mL.

B2: murine monoclonal antibody m29 (antibody, mouse IgG2b, V domains shown)
VH: QVQLQQSVSELRSPGSSVKLSCKDFDSEVFPTSYMSWVRQKPGHGFEWIGDILPNIGRIFYGEKFEDKAKLDADTVSNTAYLELTSLSSEDSAIYYCAREAYGSILGYWGQGTLVAVSA
VL: DIVMTQTPLSLPVGLGDQASISCRSSQSLLHSNGNTYLHWYLQKPGQSPKLLIYKVSNRFSGVPDRFSGSGSGTDFTLKISRVEAEDLGVYFCSQSSHLPWTFGGGTKLEIK
notes: also called mouse monoclonal antibody m29; m29 monoclonal antibody
B2 was tested, and the “EC50 of CDC activity … 10% rabbit serum” value [1] was about 0.03 µg/mL and the binding result [2] was “binds”.

B3: human-mouse chimeric antibody ch29G (antibody, V domains shown)
VH: B2 VH
VL: B2 VL
notes: not shown: human IgG1 heavy chain constant region; human kappa light chain constant region (C-domain)
For B3, the “EC50 of CDC activity … 10% rabbit serum” value [1] was about 0.03 µg/mL, the binding result [2] was “binds” and the binding result [3] was “binds”.
